Where two headings read alike, the source gives them in different places.
T1: recombinant CD19 (UniProt P15391 20-291, limits assumed)
T1 construct: also called Cluster of Differentiation 19; B-lymphocyte antigen CD19
T1 sequence (looked up): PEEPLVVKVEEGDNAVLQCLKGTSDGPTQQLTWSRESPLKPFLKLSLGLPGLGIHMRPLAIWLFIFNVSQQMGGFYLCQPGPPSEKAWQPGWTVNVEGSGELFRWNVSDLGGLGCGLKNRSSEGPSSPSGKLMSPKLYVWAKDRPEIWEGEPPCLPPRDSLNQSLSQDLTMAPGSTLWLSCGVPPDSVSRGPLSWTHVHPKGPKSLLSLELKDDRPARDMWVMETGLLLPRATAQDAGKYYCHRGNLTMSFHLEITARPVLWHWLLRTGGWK

T2: CD19 on CD19+ cells (Raji cells; NALM-6 tumor cells) (UniProt P15391 20-556, limits assumed)
T2 construct: whole, on cells; Endogenous CD19 on tumor cell lines; also called CD19+ Raji cells
T2 sequence (looked up): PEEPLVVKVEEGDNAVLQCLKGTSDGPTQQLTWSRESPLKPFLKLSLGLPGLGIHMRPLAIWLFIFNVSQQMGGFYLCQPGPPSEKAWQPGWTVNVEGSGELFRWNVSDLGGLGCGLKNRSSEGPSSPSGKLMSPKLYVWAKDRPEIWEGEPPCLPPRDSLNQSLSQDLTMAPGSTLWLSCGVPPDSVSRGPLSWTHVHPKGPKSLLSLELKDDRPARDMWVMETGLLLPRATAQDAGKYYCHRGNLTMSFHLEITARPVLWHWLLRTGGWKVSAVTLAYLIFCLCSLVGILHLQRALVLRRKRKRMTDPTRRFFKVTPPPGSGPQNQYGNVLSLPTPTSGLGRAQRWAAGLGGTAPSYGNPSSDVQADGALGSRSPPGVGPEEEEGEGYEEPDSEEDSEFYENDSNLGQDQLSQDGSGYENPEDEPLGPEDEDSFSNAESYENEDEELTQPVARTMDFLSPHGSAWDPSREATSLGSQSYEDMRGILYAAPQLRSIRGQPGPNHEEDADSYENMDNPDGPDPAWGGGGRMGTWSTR


Assays:
recombinant CD19 [1] = molecular target: T1, recombinant CD19; assay: ELISA on recombinant CD19, OD at 405 nm against antibody concentration
[2] = molecular target: T2, CD19 on CD19+ cells (Raji cells; NALM-6 …); assay: flow cytometry, binder incubated with CD19+ Raji cells
recombinant CD19 [3] = molecular target: T1, recombinant CD19; assay: ELISA on recombinant CD19, OD at 405 nm
recombinant CD19 [4] = molecular target: T1, recombinant CD19; assay: ELISA on recombinant CD19, OD at 405 nm against antibody concentration; remark: listed apart in the source
recombinant CD19 [5] = molecular target: T1, recombinant CD19; assay: as above; remark: listed apart in the source
[6] = molecular target: T2, CD19 on CD19+ cells (Raji cells; NALM-6 …); assay: cell-based or functional assay

Row | EC50 (read off the curve) (recombinant CD19 [1]) [µg/mL] | EC50 [2] [µg/mL] | EC50 (recombinant CD19 [3]) [µg/mL] | EC50 (read off the curve) (recombinant CD19 [4]) [µg/mL] | EC50 (read off the curve) (recombinant CD19 [5]) [µg/mL] | Binder | NALM-6 survival percentage after 24-hour co-culture with hypoimmune CAR T cells, E:T ratio of 1:32 (luciferase read-out) [6] [%]
1 | ~0.1 | 0.041 | 0.099 |  |  | CD19 Binder 1 (scFv, V domains shown) VH: EVQLVESGGGLIQPGGSLRLSCAASGFTVSSNYMSWVRQAPGKGLEWVSVIYSGGSTYYADSVKGRFTISRDNSKNTLYLQMNSLRAEDTAVYYCARDGGLDTLYGMDVWGQGTTVTVSS VL: QSVVTQPPSVSGAPGQRVTISCTGSSSNIGAGYDVHWYQQLPGTAPKLLIYGNSNRPSGVPDRFSGSKSGTSASLAITGLQAEDEADYYCQSYDSSLSGSYVFGTGTKVTVL | 
2 |  | 0.073 | 0.27 | ~0.3 |  | CD19 Binder 2 (scFv, V domains shown) VH: EVHLVESGGGLVQPGGSLRLSCAASGFTFSDYYMSWIRQAPGKGLEWVSYISSSGSTTYYADSVKGRFTISRDNAKNSLYLQMNSLRAEDTAVYYCARVEGWSLLDYWGQGTLVTVSS VL: QSVLTQPPSVSAAPGQKVTMSCSGSSSNIGNNYVSWYQQLPGTAPKLLIYDNNKRPSGIPDRFSGSKSGTSATLGITGLQTGDEADYYCGTWDSSLGAVVFGGGTKVTVL | 
3 |  | 1.2 | 0.044 |  | ~0.04 | CD19 Binder 3 (scFv, V domains shown) VH: EVQLVQSGAEVKKPGESLKISCKGSGYSFTSYWIGWVRQMPGKGLEWMGIIYPGDSDTRYSPSFQGQVTISADKSISTAYLQWSSLKASDTAMYYCARLPFVGATTGGFDYWGQGTLVTVSS VL: QSVVTQPASVSGSPGQSITISCTGTSSDVGGYNYVSWYQQHPGKAPKLVIYEVSNRPSGVSNRFSGSKSGNTASLTISGLQAEDEADYYCSSYTSSSTLVFGGGTKLTVL | 
4 |  |  |  |  |  | CAR 400 (VH-VL) CD19 chimeric antigen receptor (receptor) EVQLVQSGAEVKKPGESLKISCKGSGYSFTSYWIGWVRQMPGKGLEWMGIIYPGDSDTRYSPSFQGQVTISADKSISTAYLQWSSLKASDTAMYYCARLPFVGATTGGFDYWGQGTLVTVSSGGGGSGGGGSGGGGSQSVVTQPASVSGSPGQSITISCTGTSSDVGGYNYVSWYQQHPGKAPKLVIYEVSNRPSGVSNRFSGSKSGNTASLTISGLQAEDEADYYCSSYTSSSTLVFGGGTKLTVLTTTPAPRPPTPAPTIASQPLSLRPEACRPAAGGAVHTRGLDFACDIYIWAPLAGTCGVLLLSLVITLYCKRGRKKLLYIFKQPFMRPVQTTQEEDGCSCRFPEEEEGGCELRVKFSRSADAPAYQQGQNQLYNELNLGRREEYDVLDKRRGRDPEMGGKPRRKNPQEGLYNELQKDKMAEAYSEIGMKGERRRGKGHDGLYQGLSTATKDTYDALHMQALPPR | < 20
